Entries after “also recorded” stand apart in the source; their conditions may differ.
What was measured:
TRIM66-WT965-1160 = biological target: T1, TRIM66-WT965-1160 (Homo sapiens, UniProt O15016); assay: ITC, PHD-Bromodomain wild type; type: binding; settings: ITC, 25 °C, pH 7.5
T1 construct: ITC titration: titrating TRIM66-WT965-1160 with various histone H3 peptides; GST (N, cleaved yes); made in house; host or cells: Escherichia coli BL21 (DE3)
T1 sequence (O15016 1100-1295): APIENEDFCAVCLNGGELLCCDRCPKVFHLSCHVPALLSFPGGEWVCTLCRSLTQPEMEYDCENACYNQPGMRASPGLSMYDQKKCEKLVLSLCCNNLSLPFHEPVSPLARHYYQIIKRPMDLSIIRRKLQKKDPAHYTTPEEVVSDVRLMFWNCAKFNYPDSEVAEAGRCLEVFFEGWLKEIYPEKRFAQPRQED
Excerpt: We next performed the glutathione S-transferase (GST) pulldown assays of the TRIM66-WT965-1160 against the calf thymus histones to verify the histone-binding ability of TRIM66 PHD-Bromodomain. […] The PHD of TRIM66 shared a low conservation with those of ING4, PHF2, and BPTF, and lacked the conserved aromatic residues, which were necessary for binding H3K4me2/3[40]–[42] (Supplementary Fig. 2b). Nevertheless, TRIM66 was highly conserved in sequence and structure with the PHDs of TRIM24 and TRIM33 (Fig. 1c and Supplementary Fig. 2b), which were reported to bind H3K4me0[5],[6]; thus, we speculated that the PHD of TRIM66 could bind H3K4me0. To verify this hypothesis, we performed isothermal titration calorimetry (ITC)-based binding assays. […] Based on previous researches reporting the acetyl-lysine binding partners of Bromodomain[3]–[12], we chose a series of related peptides derived from H3 and H4, to test their interactions with TRIM66-WT965-1160 by ITC experiments. […] We further found the acetylated state of K56 was necessary for this binding (Supplementary Fig. 3b).
We next titrated the TRIM66-WT965-1160 with a series of R2-methylated H3 peptides through ITC assays. […] This finding was consistent with the structural observation that each NηH atom of the R2 formed a hydrogen bond with residues in protein (Fig. 2d).
The DNA fragments of human TRIM66_968-1160, TRIM24_824-1006, and TRIM33_882-1087 were amplified from a human bone marrow cDNA library using a PCR-based cloning strategy. The fragments of TRIM66-WT968-1160 were inserted into a pGEX-4T-1 plasmid (GE Healthcare). The fragments of TRIM24_824-1006 and TRIM33_882-1087 were ligated into a pET-SUMO-28a (+) plasmid (Novagen). The DNA fragments of TRIM66-MUT968-1160 and TRIM66-WT965-1160 with codon optimization were synthesized by General Biosystems (sequence was shown in Supplementary Methods) and inserted into a pGEXT-4T-1 plasmid (GE Healthcare). Mutants of TRIM66 PHD-Bromo were generated through PCR using the Mutant Best kit (Takara). The mutation of point mutant based on the codon-optimized DNA sequence of TRIM66-WT965-1160. All constructs were expressed in Escherichia coli BL21 (DE3). The construct of ASF1a1-156 inserted into a pRSFDuet plasmid (courtesy of Ruiming Xu Lab, Institute of Biophysics, Chinese Academy of Sciences) was expressed in E. coli BL21 (DE3) RIL. The construct of full-length H4 inserted into a pET3a plasmid was expressed in E. coli BL21 (DE3). The expression of full-length histone H3K56ac was performed in BL21 (DE3) cells transformed with pBK-AxcKRS3 and pET22b encoding H3 with amber codons at the K56 site[12]. The DNA fragment of full-length TRIM66 was synthesized by General Biosystems and ligated into fugw vector (Addgene). See the information of protein sequence in Supplementary Table 1.
(§1) The calorimetric experiments were performed at 25 °C using a MicroCal PEAQ-ITC. The proteins were dialyzed using a buffer containing 20 mM Tris and 100 mM NaCl at pH 7.5. Lyophilized peptides were dissolved in the same buffer and adjusted to pH 7.5 prior to use. Peptide concentrations were estimated from the quantitative NMR experiments[73],[74]. ITC measurements were performed via injection of 0.7–4 mM peptide into a cell containing 0.12 mM TRIM24-PHD-Bromo, 0.05 mM TRIM33 PHD-Bromo, and 0.05 or 0.11–0.15 mM TRIM66-PHD-Bromo (or its mutants). The ITC data were subsequently analyzed using the MicroCal PEAQ-ITC analysis software.

TRIM66-GSGS968-1160 = biological target: T2, TRIM66-GSGS968-1160 (Homo sapiens, UniProt O15016, A1173S/DEL1165-1171/P1175S/R1172G/S1174G); assay: ITC, NMR mutant protein; type: binding; settings: 25 °C, 20 mM Tris, 100 mM NaCl, pH 7.5, single measurement
T2 construct: We created a mutant protein (termed TRIM66-GSGS968-1160;); GST (N, cleaved yes); made in house; host or cells: Escherichia coli BL21 (DE3)
T2 sequence (O15016 with tags, fused parts or gaps DEL1165-1171/R1172G/A1173S/S1174G/P1175S): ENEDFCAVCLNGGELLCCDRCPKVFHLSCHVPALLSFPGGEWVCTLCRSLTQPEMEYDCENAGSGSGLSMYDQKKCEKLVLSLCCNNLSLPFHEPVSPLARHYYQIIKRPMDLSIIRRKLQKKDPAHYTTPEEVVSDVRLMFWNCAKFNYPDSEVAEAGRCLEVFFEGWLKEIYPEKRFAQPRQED
Procedure: To investigate the interaction between the H3K56ac peptide and the TRIM66 PHD-Bromodomain, we performed a nuclear magnetic resonance (NMR) titration experiment. We created a mutant protein (termed TRIM66-GSGS968-1160; Supplementary Fig. 1e, Supplementary Fig. 7a, b, Supplementary Table 1, and Supplementary Note 2).
as §1, with “software. […]” for “software.”
protein (TRIM66-WT965-1160) in all the ITC and GST pull down interaction assays. Meanwhile, the […]
experiments and crystal experiment, respectively. […]
combinational manner (Fig. 1d). To further figure out the binding mode between the TRIM66 PHD-Bromodomain and the united H3(1-15)-(48-57) K56ac peptide, we performed a NMR titration experiment and carefully analyzed the linewidth changes of TRIM66 -GSGS968-1160 (this protein is […]

TRIM33_882-1087 = biological target: T3, TRIM33_882-1087 (Homo sapiens, UniProt Q9UPN9); assay: ITC, PHD-Bromodomain; settings: 25 °C, 20 mM Tris, 100 mM NaCl, pH 7.5, single measurement, error from curve fit, Weak binding = ITC curves cannot be fitted reliably
T3 construct: The fragments of TRIM24_824-1006 and TRIM33_882-1087 were ligated into a pET-SUMO-28a (+) plasmid; His-SUMO (N, cleaved yes); made in house; host or cells: Escherichia coli BL21 (DE3)
T3 sequence (Q9UPN9 882-1087): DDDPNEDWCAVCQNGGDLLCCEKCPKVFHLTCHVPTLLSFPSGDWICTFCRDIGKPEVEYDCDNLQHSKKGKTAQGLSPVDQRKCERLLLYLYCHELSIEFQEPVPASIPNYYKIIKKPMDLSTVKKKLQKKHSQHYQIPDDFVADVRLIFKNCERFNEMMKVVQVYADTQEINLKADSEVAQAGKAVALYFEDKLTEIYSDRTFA
Excerpt: (§2) We subsequently compared the complex structure of TRIM24, TRIM33, and TRIM66 with H3 peptide. […] (Fig. 2d). […] However, they were sensitive to H3R2me2s (Table 2, Supplementary Fig. 5b, c, and Supplementary Table 2).
(§3) The DNA fragments of human TRIM66_968-1160, TRIM24_824-1006, and TRIM33_882-1087 were amplified from a human bone marrow cDNA library using a PCR-based cloning strategy. The fragments of TRIM66-WT968-1160 were inserted into a pGEX-4T-1 plasmid (GE Healthcare). The fragments of TRIM24_824-1006 and TRIM33_882-1087 were ligated into a pET-SUMO-28a (+) plasmid (Novagen). The DNA fragments of TRIM66-MUT968-1160 and TRIM66-WT965-1160 with codon optimization were synthesized by General Biosystems (sequence was shown in Supplementary Methods) and inserted into a pGEXT-4T-1 plasmid (GE Healthcare). Mutants of TRIM66 PHD-Bromo were generated through PCR using the Mutant Best kit (Takara). The mutation of point mutant based on the codon-optimized DNA sequence of TRIM66-WT965-1160. All constructs were expressed in Escherichia coli BL21 (DE3). […]
(§4) The calorimetric experiments were performed at 25 °C using a MicroCal PEAQ-ITC. […] Peptide concentrations were estimated from the quantitative NMR experiments[73],[74]. […] The ITC data were subsequently analyzed using the MicroCal PEAQ-ITC analysis software.

TRIM24_824-1006 = biological target: T4, TRIM24_824-1006 (Homo sapiens, UniProt O15164); assay: ITC, PHD-Bromodomain; settings: 25 °C, 20 mM Tris, 100 mM NaCl, pH 7.5, single measurement, error from curve fit, Weak binding = ITC curves cannot be fitted reliably
T4 construct: The fragments of TRIM24_824-1006 and TRIM33_882-1087 were ligated into a pET-SUMO-28a (+) plasmid; His-SUMO (N, cleaved yes); made in house; host or cells: Escherichia coli BL21 (DE3)
T4 sequence (O15164 824-1006): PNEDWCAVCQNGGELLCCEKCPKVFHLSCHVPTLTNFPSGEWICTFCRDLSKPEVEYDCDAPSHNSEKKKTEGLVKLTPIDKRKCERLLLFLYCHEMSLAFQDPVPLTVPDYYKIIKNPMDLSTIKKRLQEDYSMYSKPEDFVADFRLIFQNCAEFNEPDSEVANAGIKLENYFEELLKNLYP
Excerpt: as §2, §3, §4

[1] = MicroCal PEAQ-ITC, 20 mM Tris, 100 mM NaCl, single measurement, error from curve fit, Weak binding = ITC curves cannot be fitted reliably, N.D. = no detectable binding

Compound	Kd (TRIM66-WT965-1160; [1])	Kd (TRIM66-GSGS968-1160)	binding (in words) (TRIM66-WT965-1160)	KD (TRIM66-WT965-1160; [1])	KD (TRIM33_882-1087)	KD (TRIM24_824-1006)
CC[C@H](C)[C@H](NC(=O)[C@H](CCC(=O)O)NC(=O)[C@H](CCCNC(=N)N)NC(=O)[C@@H](N)CC(C)C)C(=O)N[C@@H](CCCNC(=N)N)C(=O)N[C@@H](CCCNC(=N)N)C(=O)N[C@@H](Cc1ccc(O)cc1)C(=O)N[C@@H](CCC(N)=O)C(=O)N[C@@H](CCCCNC(C)=O)C(=O)N[C@@H](CO)C(=O)O [H3_48-57K56ac]	109 µM	127 ± 9.53 µM	–	–	–	–
H3R2me2s: symmetrically dimethylated H3R2 peptide	–	–	obvious reduction in their binding affinities	Weak binding; also recorded: ^aWeak binding	Weak binding	Weak binding

From publication PMC6753139, “TRIM66 reads unmodified H3R2K4 and H3K56ac to respond to DNA damage in embryonic stem cells” (Nature Communications, 2019)
